Assay results from patent US20240392004A1 (IMMUNOWAKE, published 2024).
Numbering of substitutions follows the chain as printed. Numbers in names are those of the source.

B1: PD-L1(I54Q/Y56F/E58M/R113T/M115L/S117A/G119K)-Fc/IL-12(F60A) (IL-12 at C-terminus of Fc) (Fc fusion)
chain 1: FTVTVPKDLYVVEYGSNMTIECKFPVEKQLDLAALQVFWMMEDKNIIQFVHGEEDLKVQHSSYRQRARLLKDQLSLGNAALQITDVKLQDAGVYTCLIAYKGADYKRITVKVNAPYNKINQRILVVDPVTSEHELTCQAEGYPKAEVIWTSSDHQVLSGKTTTTNSKREEKLFNVTSTLRINTTTNEIFYCTFRRLDPEENHTAELVIPELPLAHPPNERGSGDKTHTCPPCPAPEKKGGPSVFLFPPKPKDTLMISRTPEVTCVVVDVSHEDPEVKFNWYVDGVEVHNAKTKPREEQYNSTYRVVSVLTVLHQDWLNGKEYKCKVSNKALPAPIEKTISKAKGQPREPQVYVLPPSREEMTKNQVSLLCLVKGFYPSDIAVEWESNGQPENRYMTWPPVLDSDGSFFLYSKLTVDKSRWQQGNVFSCSVMHEALHNHYTQKSLSLSPGK
chain 2: FTVTVPKDLYVVEYGSNMTIECKFPVEKQLDLAALQVFWMMEDKNIIQFVHGEEDLKVQHSSYRQRARLLKDQLSLGNAALQITDVKLQDAGVYTCLIAYKGADYKRITVKVNAPYNKINQRILVVDPVTSEHELTCQAEGYPKAEVIWTSSDHQVLSGKTTTTNSKREEKLFNVTSTLRINTTTNEIFYCTFRRLDPEENHTAELVIPELPLAHPPNERGSGDKTHTCPPCPAPEDEGGPSVFLFPPKPKDTLMISRTPEVTCVVVDVSHEDPEVKFNWYVDGVEVHNAKTKPREEQYNSTYRVVSVLTVLHQDWLNGKEYKCKVSNKALPAPIEKTISKAKGQPREPQVYVYPPSREEMTKNQVSLTCLVKGFYPSDIAVEWESNGQPENNYKTTPPVLDEDGSFALVSKLTVDKSRWQQGNVFSCSVMHEALHNHYTQKSLSLSPGKGGGGSGGGGSGGGGSIWELKKDVYVVELDWYPDAPGEMVVLTCDTPEEDGITWTLDQSSEVLGSGKTLTIQVKEAGDAGQYTCHKGGEVLSHSLLLLHKKEDGIWSTDILKDQKEPKNKTFLRCEAKNYSGRFTCWWLTTISTDLTFSVKSSRGSSDPQGVTCGAATLSAERVRGDNKEYEYSVECQEDSACPAAEESLPIEVMVDAVHKLKYENYTSSFFIRDIIKPDPPKNLQLKPLKNSRQVEVSWEYPDTWSTPHSYFSLTFCVQVQGKSKREKKDRVFTDKTSATVICRKNASISVRAQDRYYSSSWSEWASVPCSGGGGSGGGGSGGGGSGGGGSGRNLPVATPDPGMFPCLHHSQNLLRAVSNMLQKARQTLEFYPCTSEEIDHEDITKDKTSTVEACLPLELTKNESCLNSRETSFITNGSCLASRKTSFMMALCLSSIYEDLKMYQVEFKTMNAKLLMDPKRQIFLDQNMLAVIDELMQALNFNSETVPQKSSLEEPDFYKTKIKLCILLHAFRIRAVTIDRVMSYLNAS
B2: IL-12(E59A/F60A)/PD-L1(I54Q/Y56F/E58M/R113T/M115L/S117A/G119K)-Fc (IL-12 at hinge) (Fc fusion)
chain 1: B1 chain 1
chain 2: FTVTVPKDLYVVEYGSNMTIECKFPVEKQLDLAALQVFWMMEDKNIIQFVHGEEDLKVQHSSYRQRARLLKDQLSLGNAALQITDVKLQDAGVYTCLIAYKGADYKRITVKVNAPYNKINQRILVVDPVTSEHELTCQAEGYPKAEVIWTSSDHQVLSGKTTTTNSKREEKLFNVTSTLRINTTTNEIFYCTFRRLDPEENHTAELVIPELPLAHPPNERGSGIWELKKDVYVVELDWYPDAPGEMVVLTCDTPEEDGITWTLDQSSEVLGSGKTLTIQVKAAGDAGQYTCHKGGEVLSHSLLLLHKKEDGIWSTDILKDQKEPKNKTFLRCEAKNYSGRFTCWWLTTISTDLTFSVKSSRGSSDPQGVTCGAATLSAERVRGDNKEYEYSVECQEDSACPAAEESLPIEVMVDAVHKLKYENYTSSFFIRDIIKPDPPKNLQLKPLKNSRQVEVSWEYPDTWSTPHSYFSLTFCVQVQGKSKREKKDRVFTDKTSATVICRKNASISVRAQDRYYSSSWSEWASVPCSGGGGSGGGGSGGGGSGGGGSGRNLPVATPDPGMFPCLHHSQNLLRAVSNMLQKARQTLEFYPCTSEEIDHEDITKDKTSTVEACLPLELTKNESCLNSRETSFITNGSCLASRKTSFMMALCLSSIYEDLKMYQVEFKTMNAKLLMDPKRQIFLDQNMLAVIDELMQALNFNSETVPQKSSLEEPDFYKTKIKLCILLHAFRIRAVTIDRVMSYLNASDKTHTCPPCPAPEDEGGPSVFLFPPKPKDTLMISRTPEVTCVVVDVSHEDPEVKFNWYVDGVEVHNAKTKPREEQYNSTYRVVSVLTVLHQDWLNGKEYKCKVSNKALPAPIEKTISKAKGQPREPQVYVYPPSREEMTKNQVSLTCLVKGFYPSDIAVEWESNGQPENNYKTTPPVLDEDGSFALVSKLTVDKSRWQQGNVFSCSVMHEALHNHYTQKSLSLSPGK
B3: IL-12(F60A)/PD-L1(I54Q/Y56F/E58M/R113T/M115L/S117A/G119K)-Fc (IL-12 at hinge) (Fc fusion)
chain 1: B1 chain 1
chain 2: B2 chain 2 with A282E
B4: IL-12(E59A/F60A)/anti-PD-1(D100N) (antibody)
light: not shown
heavy: QVQLVESGGGVVQPGRSLRLDCKASGITFSNSGMHWVRQAPGKGLEWVAVIWYDGSKRYYADSVKGRFTISRDNSKNTLFLQMNSLRAEDTAVYYCATNNDYWGQGTLVTVSSASTKGPSVFPLAPSSKSTSGGTAALGCLVKDYFPEPVTVSWNSGALTSGVHTFPAVLQSSGLYSLSSVVTVPSSSLGTQTYICNVNHKPSNTKVDKKVEPKSCDKPGSGIWELKKDVYVVELDWYPDAPGEMVVLTCDTPEEDGITWTLDQSSEVLGSGKTLTIQVKAAGDAGQYTCHKGGEVLSHSLLLLHKKEDGIWSTDILKDQKEPKNKTFLRCEAKNYSGRFTCWWLTTISTDLTFSVKSSRGSSDPQGVTCGAATLSAERVRGDNKEYEYSVECQEDSACPAAEESLPIEVMVDAVHKLKYENYTSSFFIRDIIKPDPPKNLQLKPLKNSRQVEVSWEYPDTWSTPHSYFSLTFCVQVQGKSKREKKDRVFTDKTSATVICRKNASISVRAQDRYYSSSWSEWASVPCSGGGGSGGGGSGGGGSGGGGSGRNLPVATPDPGMFPCLHHSQNLLRAVSNMLQKARQTLEFYPCTSEEIDHEDITKDKTSTVEACLPLELTKNESCLNSRETSFITNGSCLASRKTSFMMALCLSSIYEDLKMYQVEFKTMNAKLLMDPKRQIFLDQNMLAVIDELMQALNFNSETVPQKSSLEEPDFYKTKIKLCILLHAFRIRAVTIDRVMSYLNASDKTHTCPPCPAPEDEGGPSVFLFPPKPKDTLMISRTPEVTCVVVDVSHEDPEVKFNWYVDGVEVHNAKTKPREEQYNSTYRVVSVLTVLHQDWLNGKEYKCKVSNKALPAPIEKTISKAKGQPREPQVYVYPPSREEMTKNQVSLTCLVKGFYPSDIAVEWESNGQPENNYKTTPPVLDEDGSFALVSKLTVDKSRWQQGNVFSCSVMHEALHNHYTQKSLSLSPGK
heavy (part 1 of 2): QVQLVESGGGVVQPGRSLRLDCKASGITFSNSGMHWVRQAPGKGLEWVAVIWYDGSKRYYADSVKGRFTISRDNSKNTLFLQMNSLRAEDTAVYYCATNNDYWGQGTLVTVSSAS
heavy (part 2 of 2): EPKSCDKTHTCPPCPAPEKKGGPSVFLFPPKPKDTLMISRTPEVTCVVVDVSHEDPEVKFNWYVDGVEVHNAKTKPREEQYNSTYRVVSVLTVLHQDWLNGKEYKCKVSNKALPAPIEKTISKAKGQPREPQVYVLPPSREEMTKNQVSLLCLVKGFYPSDIAVEWESNGQPENRYMTWPPVLDSDGSFFLYSKLTVDKSRWQQGNVFSCSVMHEALHNHYTQKSLSLSPGK
B5: IL-12(E59A/F60A)/anti-PD-1(D100G) (antibody)
light: not shown
heavy: B4 heavy with N100G
heavy (part 1 of 2): B4 heavy (part 1 of 2) with N100G
heavy (part 2 of 2): B4 heavy (part 2 of 2)
B6: IL-12(E59A/F60A)/anti-PD-1(D100R) (antibody)
light: not shown
heavy: B4 heavy with N100R
heavy (part 1 of 2): B4 heavy (part 1 of 2) with N100R
heavy (part 2 of 2): B4 heavy (part 2 of 2)
B7: IL-12(E59A/F60A)/anti-PD-1(N99G) (antibody)
light: not shown
heavy: not shown
heavy (part 1 of 2): B4 heavy (part 1 of 2) with N99G, N100D
heavy (part 2 of 2): B4 heavy (part 2 of 2)
B8: anti-PD-1 antibody HC-CDR3(D100G) (antibody, V domains shown)
VH: QVQLVESGGGVVQPGRSLRLDCKASGITFSNSGMHWVRQAPGKGLEWVAVIWYDGSKRYYADSVKGRFTISRDNSKNTLFLQMNSLRAEDTAVYYCATNGDYWGQGTLVTVSS
VL: EIVLTQSPATLSLSPGERATLSCRASQSVSSYLAWYQQKPGQAPRLLIYDASNRATGIPARFSGSGSGTDFTLTISSLEPEDFAVYYCQQSSNWPRTFGQGTKVEIKR
notes: constant parts as m82
B9: anti-PD-1 antibody HC-CDR3(D100N) (antibody, V domains shown)
VH: B8 VH with G100N
VL: B8 VL
notes: constant parts as m82
B10: anti-PD-1 antibody HC-CDR3(D100R) (antibody, V domains shown)
VH: B8 VH with G100R
VL: B8 VL
notes: constant parts as m82
B11: anti-PD-1 antibody HC-CDR3(N99G) (antibody, V domains shown)
VH: B8 VH with N99G, G100D
VL: B8 VL
notes: constant parts as m82

These binders were tested against T1, human PD-1 on cells (HEK-PD-1 reporter cells; activated PBMC) (human, UniProt Q15116 25-288) (assay: cell-based or functional assay).
T1 sequence (Q15116 25-288): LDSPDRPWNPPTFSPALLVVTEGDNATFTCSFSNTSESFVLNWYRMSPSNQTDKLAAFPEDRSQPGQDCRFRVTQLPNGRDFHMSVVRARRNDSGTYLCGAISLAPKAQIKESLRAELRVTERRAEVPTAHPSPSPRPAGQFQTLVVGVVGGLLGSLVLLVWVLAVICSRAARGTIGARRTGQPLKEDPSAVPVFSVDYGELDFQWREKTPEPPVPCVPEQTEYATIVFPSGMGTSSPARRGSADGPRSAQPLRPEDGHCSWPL

Binder	Biological activity of IL-12, HEK-PD-1-IL-12 reporter assay, % of rIL-12 [%]
B1	234
B2	126
B3	234

Target: T1, human PD-1 on cells (HEK-PD-1 reporter …)
Experiment: cell-based or functional assay
Remark: another data set of the same source

Binder	IFN-γ release, activated PBMC [ng/mL]	IL-12 signal transduction, HEK-IL-12-PD-1 (high) [%]	IL-12 signal transduction, HEK-IL-12-PD-1 (low) [%]
B4	820	38	33
B5	120	33	17
B6	69	10	3
B7	34	5	< 0.2

The binders below were run against human IL-12 receptor complex (IL-12Rβ1 and IL-12Rβ2) (human, UniProt P42701 24-662; Q99665 24-862) (assay: cell-based or functional assay).
human IL-12 receptor complex (IL-12Rβ1 and IL-12Rβ2), sequence (Q99665 24-862, chain 2 of 2, other chains not shown): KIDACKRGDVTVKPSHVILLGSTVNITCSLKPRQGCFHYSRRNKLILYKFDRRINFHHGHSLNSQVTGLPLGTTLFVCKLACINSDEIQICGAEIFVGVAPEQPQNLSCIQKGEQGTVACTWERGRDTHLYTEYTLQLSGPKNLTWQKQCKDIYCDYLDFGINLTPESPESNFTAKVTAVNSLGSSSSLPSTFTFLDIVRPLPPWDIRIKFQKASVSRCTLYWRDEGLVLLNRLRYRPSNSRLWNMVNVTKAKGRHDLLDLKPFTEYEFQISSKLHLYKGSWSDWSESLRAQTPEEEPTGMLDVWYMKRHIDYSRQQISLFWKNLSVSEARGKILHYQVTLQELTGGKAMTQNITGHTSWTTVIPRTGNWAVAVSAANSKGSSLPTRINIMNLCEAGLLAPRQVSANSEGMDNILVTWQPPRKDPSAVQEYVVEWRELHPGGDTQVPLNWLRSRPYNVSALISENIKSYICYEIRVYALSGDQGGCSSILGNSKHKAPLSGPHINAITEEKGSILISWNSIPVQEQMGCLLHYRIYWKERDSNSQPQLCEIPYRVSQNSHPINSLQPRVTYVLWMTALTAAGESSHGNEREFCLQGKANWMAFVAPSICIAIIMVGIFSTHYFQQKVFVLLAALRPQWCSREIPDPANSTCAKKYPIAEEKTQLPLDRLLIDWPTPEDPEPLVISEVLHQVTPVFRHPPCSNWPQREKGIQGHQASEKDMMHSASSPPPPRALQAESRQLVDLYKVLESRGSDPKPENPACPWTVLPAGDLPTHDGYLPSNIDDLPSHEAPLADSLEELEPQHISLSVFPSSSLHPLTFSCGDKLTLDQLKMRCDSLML

Binder	IL-12 signal transduction, HEK IL-12 [%]
B4	< 0.2
B5	< 0.2
B6	< 0.2
B7	< 0.2

Each binder was assayed against T2, human PD-1 (human, UniProt Q15116 25-167, limits assumed) (assay: Biacore and cell-based assays, calibrated by wildtype nivolumab binding affinity).
T2 construct: also called hPD-1
T2 sequence (Q15116 25-167 limits assumed): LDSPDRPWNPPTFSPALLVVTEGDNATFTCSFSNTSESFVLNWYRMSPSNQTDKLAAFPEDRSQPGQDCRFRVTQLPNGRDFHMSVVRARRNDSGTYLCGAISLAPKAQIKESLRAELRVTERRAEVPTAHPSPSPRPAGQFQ

Binder	Kd [nM]
B8	130
B9	25
B10	910
B11	2300

Each binder was assayed against T2, human PD-1 (assay: same value as Table 11 (measured on the antibody without IL-12)).

Binder	Kd [nM]
B4	25
B5	130
B6	910
B7	2300
